{"source": "patent US20240199757A1", "about": "(UNIVERSITY OF CHICAGO, published 2024)", "binders": {"B1": {"name": "1789 Fab (Fab, V domains shown)", "VH": "EVQLVESGGGLVQPGGSLRLSCAASGFNVSYSSIHWVRQAPGKGLEWVASISSSSGYTYYADSVKGRFTISADTSKNTAYLQMNSLRAEDTAVYYCARNYWGWYPFYYFAFDYWGQGTLVTV", "VL": "DIQMTQSPSSLSASVGDRVTITCRASQSVSSAVAWYQQKPGKAPKLLIYSASSLYSGVPSRFSGSRSGTDFTLTISSLQPEDFATYYCQQGWDYPITFGQGTKVEIKR"}, "B2": {"name": "1789 IgG (antibody, V domains shown)", "VH": "EVQLVESGGGLVQPGGSLRLSCAASGFNVSYSSIHWVRQAPGKGLEWVASISSSSGYTYYADSVKGRFTISADTSKNTAYLQMNSLRAEDTAVYYCARNYWGWYPFYYFAFDYWGQGTLVTVSS", "VL": "B1 VL"}}, "key": {"[1]": {"molecular_target": "T1, Full-length murine NT5E (recombinant) (murine, UniProt Q61503 29-552)", "T1 construct": "also called mNT5E", "T1 sequence": "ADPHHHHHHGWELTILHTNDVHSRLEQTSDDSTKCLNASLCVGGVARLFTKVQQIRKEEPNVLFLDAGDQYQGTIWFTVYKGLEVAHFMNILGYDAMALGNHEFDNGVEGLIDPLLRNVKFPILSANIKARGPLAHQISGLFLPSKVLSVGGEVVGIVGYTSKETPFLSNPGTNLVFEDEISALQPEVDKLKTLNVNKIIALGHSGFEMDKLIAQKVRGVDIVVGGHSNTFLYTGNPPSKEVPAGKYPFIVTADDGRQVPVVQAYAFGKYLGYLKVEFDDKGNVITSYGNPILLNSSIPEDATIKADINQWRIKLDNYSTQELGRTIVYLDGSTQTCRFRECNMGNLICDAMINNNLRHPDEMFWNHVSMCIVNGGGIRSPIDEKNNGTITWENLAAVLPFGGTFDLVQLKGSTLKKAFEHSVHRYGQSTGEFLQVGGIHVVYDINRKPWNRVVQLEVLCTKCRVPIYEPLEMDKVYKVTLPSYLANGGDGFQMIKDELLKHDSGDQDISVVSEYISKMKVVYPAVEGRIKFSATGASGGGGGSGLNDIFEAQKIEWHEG", "assay": "SPR, His-captured NT5E, 1 mM ATP; SPR, 1 mM ATP", "protocol": "(§1) All SPR experiments were performed at 25° C. using MASS-1 (Bruker) instrument. hNT5E, mNT5E and cNT5E were immobilized onto a nitrilotriacetic acid (NTA) sensor chip via His-tag. For kinetic experiments, after ligand immobilization, 2-fold serial dilutions of the Fabs were injected. After double-reference subtraction data were analyzed with BiaEvaluation (GE Healthcare) or Sierra Analyser (Bruker) software. The experiments were carried in buffers in presence and absence of 1 mM ATP to compare the kinetic parameters of the Fabs binding to closed and open form of NT5E."}, "[2]": {"molecular_target": "T2, Full-length cynomolgus NT5E (recombinant) (cynomolgus, UniProt P21589 27-549 (human entry))", "T2 construct": "also called cNT5E; cyno NT5E", "T2 chain": "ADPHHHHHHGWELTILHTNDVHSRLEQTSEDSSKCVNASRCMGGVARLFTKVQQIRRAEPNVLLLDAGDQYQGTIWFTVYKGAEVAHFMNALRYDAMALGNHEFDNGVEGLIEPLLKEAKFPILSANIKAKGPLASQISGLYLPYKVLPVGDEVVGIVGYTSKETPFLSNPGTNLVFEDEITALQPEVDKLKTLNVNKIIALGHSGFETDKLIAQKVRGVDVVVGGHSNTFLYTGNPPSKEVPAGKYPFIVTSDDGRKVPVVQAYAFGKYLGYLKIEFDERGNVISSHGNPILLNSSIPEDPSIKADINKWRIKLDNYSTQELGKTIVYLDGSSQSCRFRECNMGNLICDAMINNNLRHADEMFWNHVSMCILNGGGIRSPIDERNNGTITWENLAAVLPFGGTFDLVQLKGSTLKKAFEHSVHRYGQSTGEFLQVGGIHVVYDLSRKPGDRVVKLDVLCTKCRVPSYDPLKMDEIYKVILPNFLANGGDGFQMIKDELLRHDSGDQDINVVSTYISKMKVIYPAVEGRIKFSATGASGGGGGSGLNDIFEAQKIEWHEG", "assay": "SPR, His-captured NT5E, 1 mM ATP", "protocol": "as §1"}, "[3]": {"molecular_target": "T1, Full-length murine NT5E (recombinant)", "assay": "ELISA, biotinylated NT5E on neutravidin plate, 1 mM ATP", "protocol": "(§2) (B) Protein ELISA: Protein-based multipoint ELISA was performed to estimate the affinity of the generated Fabs and IgGs to NT5E. The binding of the Fabs and IgGs to the closed form of NT5E were determined in ELISA buffer (HBST) supplemented with 10 μM zinc chloride and 1 mM ATP while the binding of the same to open form of NT5E were determined in ELISA buffer (HBST) without any cofactors. A fixed concentration of the immobilized target (50 nM) on ELISA plate was incubated with 3-fold serial dilutions of the purified Fabs and IgGs starting from 3 μM and 1 μM respectively for 15 min. The plates were washed and were subsequently incubated with a secondary HRP-conjugated anti-protein L monoclonal antibody (#32420, ThermoFisher, 1:6000 dilution). As with phage ELISA, the plates were again washed, developed with TMB substrate and quenched with 1.0 M HCl, and absorbance (Abs450) was determined. To determine the affinity (EC50), the data were fitted with a non-linear, 4-parameter logistic curve in OriginLab."}, "[4]": {"molecular_target": "T2, Full-length cynomolgus NT5E …", "assay": "ELISA, biotinylated NT5E on neutravidin plate, no cofactors (apo)", "protocol": "as §2"}, "[5]": {"molecular_target": "T3, Full-length human NT5E (recombinant, in-house) (human, UniProt P21589 27-549)", "T3 construct": "also called hNT5E; hNT5EWT", "T3 sequence": "T2 chain with T209M, M363T, I476V", "assay": "ELISA, biotinylated NT5E on neutravidin plate, no cofactors (apo)", "protocol": "as §2"}}, "note": "Positions count from the first letter of the chain named.", "data": [{"binder": "B1", "values": [{"measurement": "Kd", "setting": "[1]", "result": 160, "unit": "nM"}, {"measurement": "koff", "setting": "[1]", "result": 0.014, "unit": "s⁻¹"}, {"measurement": "kon", "setting": "[1]", "result": 85000, "unit": "M⁻¹ s⁻¹"}, {"measurement": "Kd", "setting": "[2]", "result": 32, "unit": "nM"}, {"measurement": "koff", "setting": "[2]", "result": 0.0051, "unit": "s⁻¹"}, {"measurement": "kon", "setting": "[2]", "result": 160000, "unit": "M⁻¹ s⁻¹"}]}, {"binder": "B2", "values": [{"measurement": "EC50", "setting": "[3]", "result": 1.14, "unit": "nM"}, {"measurement": "EC50", "setting": "[4]", "result": 1.04, "unit": "nM"}, {"measurement": "EC50", "setting": "[5]", "result": 2.14, "unit": "nM"}]}]}
